One molecule from PMC10623010 (Proceedings of the National Academy of Sciences of the …, 2023) can be followed below.

This test has as its target T1, recombinant human lipoprotein lipase (hLPL) (human, UniProt P06858 28-475).
T1 sequence: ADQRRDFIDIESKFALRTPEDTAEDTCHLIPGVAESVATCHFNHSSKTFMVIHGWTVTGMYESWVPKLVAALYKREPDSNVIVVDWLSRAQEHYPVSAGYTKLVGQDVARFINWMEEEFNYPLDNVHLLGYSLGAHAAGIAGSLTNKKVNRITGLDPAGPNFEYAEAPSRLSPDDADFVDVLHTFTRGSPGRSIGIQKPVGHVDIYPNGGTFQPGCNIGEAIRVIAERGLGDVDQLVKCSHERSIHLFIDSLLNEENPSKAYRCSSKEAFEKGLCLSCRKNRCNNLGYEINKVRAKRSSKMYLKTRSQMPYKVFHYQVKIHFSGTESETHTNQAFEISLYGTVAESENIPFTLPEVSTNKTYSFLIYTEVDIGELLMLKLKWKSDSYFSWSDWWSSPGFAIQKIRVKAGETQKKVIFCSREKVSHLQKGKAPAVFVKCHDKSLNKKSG
Put plainly: pull-down.

B1: recombinant mouse GPIHBP1 (mGPIHBP1) (natural protein)
chain: QEDGDADPEPENYNYDDDDDEEEEEETNMIPGSRDRAPLQCYFCQVLHSGESCNQTQSCSSSKPFCITLVSHSGTDKGYLTTYSMWCTDTCQPIIKTVGGTQMTQTCCQSTLCNIPPWQNPQVQNPLGGRADSPLESGTRHPQGGKFSHPQVVKAAHPQSDGANLPKSGKANQPQG
Turning to B1, the binding result is “binds”.
